This passage reports Kd results from patent US20240327535A1 (EISAI R AND D MANAGEMENT, published 2024).

Like-named read-outs stand apart in the source and are kept apart here.

Test in all cases: Octet BLI; Fab 200 nM
A general note: In BLI a coated tip is dipped into the sample, and binding shifts an interference pattern.

Test [1] addresses T1, extracellular domain of rhesus monkey BCMA (rhesus monkey, UniProt F7FFA0 1-53).
T1 construct: extracellular domain; also called RhBCMA

For test [2], the target named is T2, extracellular domain of human BCMA (human, UniProt Q02223 1-54).
T2 construct: amine-linked to Octet AR2G tips; also called hsBCMA; BCMA (human)
T2 sequence: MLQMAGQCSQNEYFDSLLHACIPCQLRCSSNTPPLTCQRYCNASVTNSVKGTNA

Test [3] deals with T1, extracellular domain of rhesus monkey …. This is another data set of the same source.
Test [4] addresses T2, extracellular domain of human BCMA. The source holds these as a separate data set.

T1 sequence (F7FFA0 entry or part of it): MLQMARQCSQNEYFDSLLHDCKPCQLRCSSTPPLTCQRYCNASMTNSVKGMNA

B1: AB200-(2Vk30)_R2-VH-v59 (Fab, V domains shown)
VH: QVQLVQSGAEVKKPGSSVKVSCKASGGTFSNYWIHWVRQAPGQGLEWMGGTYRIHSDTYYAQKFKSRVTITADKSTSTAYMELSSLRSEDTAVYYCARGAIYHGYDVIENWGQGTLVTVSS
VL: DIQMTQSPSSLSASVGDRVTITCRASQSISSYLNWYQQKPGKAPKLLIYATSNLQIGVPSRFSGSGSGTDFTLTISSLQPEDFATYYCQQYRRIPWTFGQGTKLEIKR
Regarding B1, the Kd (as a rule, the free concentration of one partner at which half of the binding sites on the other are occupied at equilibrium, for simple one-to-one binding) in test [1] amounted to 121 nM; in test [2] it was 37.8 nM.

B2: AB200-(2Vk35)_R2-VH-v38 (Fab, V domains shown)
VH: QVQLVQSGAEVKKPGSSVKVSCKASGGTFSNYWIHWVRQAPGQGLEWMGATYRSQSDTYYNEKFKSRVTITADKSTSTAYMELSSLRSEDTAVYYCARGAIYHGFDVIDNWGQGTLVTVSS
VL: DIQMTQSPSSLSASVGDRVTITCRASQSISSYINWYQQKPGKAPKLLIYATSNLQSGVPSRFSGSGSGTDFTLTISSLQPEDFATYYCQQYRRIPWTFGQGTKLEIKR
With B2, the values for the Kd in test [3] and in test [4] were 9.59 nM and 1.89 nM, respectively.

B3: AB200-(2Vk35)_R2-VH-v26 (Fab, V domains shown)
VH: QVQLVQSGAEVKKPGSSVKVSCKASGGTFSNYWIHWVRQAPGQGLEWMGATYRSHSTTYYAQKFKSRVTITADKSTSTAYMELSSLRSEDTAVYYCARGAIFHGYDVIDNWGQGTLVTVSS
VL: DIQMTQSPSSLSASVGDRVTITCRASQSISSYINWYQQKPGKAPKLLIYATSNLQSGVPSRFSGSGSGTDFTLTISSLQPEDFATYYCQQYRRIPWTFGQGTKLEIKR
Turning to B3, the values for the Kd in test [3] and in test [4] were 40.7 nM and 20.9 nM, respectively.

B4: AB200-(2Vk30)_R2-VH-v65 (Fab, V domains shown)
VH: QVQLVQSGAEVKKPGSSVKVSCKASGGTFSNYWIHWVRQAPGQGLEWMGATYRIQSTTYYNQKFKSRVTITADKSTSTAYMELSSLRSEDTAVYYCARGAIYHGFDVIDNWGQGTLVTVSS
VL: DIQMTQSPSSLSASVGDRVTITCRASQSISSYLNWYQQKPGKAPKLLIYATSNLQIGVPSRFSGSGSGTDFTLTISSLQPEDFATYYCQQYRRIPWTFGQGTKLEIKR
As to B4, the Kd in test [1] was determined as 46.8 nM; in test [2], 27.3 nM.

B5: AB200-(2Vk35)_R2-VH-v11 (Fab, V domains shown)
VH: QVQLVQSGAEVKKPGSSVKVSCKASGGTYSNYWIHWVRQAPGQGLEWMGATYRSHSDTNYNEKFKSRVTITADKSTSTAYMELSSLRSEDTAVYYCARGAVYHGYDVIDNWGQGTLVTVSS
VL: DIQMTQSPSSLSASVGDRVTITCRASQSISSYINWYQQKPGKAPKLLIYATSNLQSGVPSRFSGSGSGTDFTLTISSLQPEDFATYYCQQYRRIPWTFGQGTKLEIKR
As for B5, the Kd in test [3] was determined as 130 nM; in test [4] it was 47 nM.

B6: AB200-(2Vk35)_R2-VH-v15 (Fab, V domains shown)
VH: QVQLVQSGAEVKKPGSSVKVSCKASGGSFSNYWIHWVRQAPGQGLEWMGATYRSQSTTYYNQKFKSRVTITADKSTSTAYMELSSLRSEDTAVYYCARGAIFHGYDVIDNWGQGTLVTVSS
VL: DIQMTQSPSSLSASVGDRVTITCRASQSISSYINWYQQKPGKAPKLLIYATSNLQSGVPSRFSGSGSGTDFTLTISSLQPEDFATYYCQQYRRIPWTFGQGTKLEIKR
For the molecule B6, the results for the Kd in test [3] and in test [4] were 48.6 nM and 25.5 nM, respectively.

B7: AB200-(2Vk30)_R2-VH-v74 (Fab, V domains shown)
VH: QVQLVQSGAEVKKPGSSVKVSCKASGGTFSNYWIHWVRQAPGQGLEWMGATYRIHSDTYYAEKFKSRVTITADKSTSTAYMELSSLRSEDTAVYYCARGAIYHGFDVIDNWGQGTLVTVSS
VL: DIQMTQSPSSLSASVGDRVTITCRASQSISSYLNWYQQKPGKAPKLLIYATSNLQIGVPSRFSGSGSGTDFTLTISSLQPEDFATYYCQQYRRIPWTFGQGTKLEIKR
Turning to B7, the figures for the Kd in test [1] and in test [2] were 9.83 nM and 2.17 nM, respectively.

B8: AB200-(2Vk30)_R2-VH-v67 (Fab, V domains shown)
VH: QVQLVQSGAEVKKPGSSVKVSCKASGGTFSNYWIHWVRQAPGQGLEWMGATYRIHSTTYYNEKFKSRVTITADKSTSTAYMELSSLRSEDTAVYYCARGAVYHGYDVIDNWGQGTLVTVSS
VL: DIQMTQSPSSLSASVGDRVTITCRASQSISSYLNWYQQKPGKAPKLLIYATSNLQIGVPSRFSGSGSGTDFTLTISSLQPEDFATYYCQQYRRIPWTFGQGTKLEIKR
As for B8, the Kd in test [1] came to 35.7 nM; in test [2], 16.8 nM.

B9: AB200-(2Vk30)_R2-VH-v71 (Fab, V domains shown)
VH: QVQLVQSGAEVKKPGSSVKVSCKASGGTFSNYWIHWVRQAPGQGLEWMGATYRIHSDTNYNEKFKSRVTITADKSTSTAYMELSSLRSEDTAVYYCARGAIFHGYDVIDNWGQGTLVTVSS
VL: DIQMTQSPSSLSASVGDRVTITCRASQSISSYLNWYQQKPGKAPKLLIYATSNLQIGVPSRFSGSGSGTDFTLTISSLQPEDFATYYCQQYRRIPWTFGQGTKLEIKR
With B9, the results for the Kd in test [1] and in test [2] were 64.1 nM and 29.7 nM, respectively.

B10: AB200-(2Vk35)_R2-VH-v8 (Fab, V domains shown)
VH: QVQLVQSGAEVKKPGSSVKVSCKASGGTYSNYWIHWVRQAPGQGLEWMGGTYRSQSDTYYNQKFKSRVTITADKSTSTAYMELSSLRSEDTAVYYCARGAIYHGFDVIDNWGQGTLVTVSS
VL: DIQMTQSPSSLSASVGDRVTITCRASQSISSYINWYQQKPGKAPKLLIYATSNLQSGVPSRFSGSGSGTDFTLTISSLQPEDFATYYCQQYRRIPWTFGQGTKLEIKR
As to B10, the values for the Kd in test [3] and in test [4] were 38 nM and 12.1 nM, respectively.

B11: AB200-(2Vk35)_R2-VH-v49 (Fab, V domains shown)
VH: QVQLVQSGAEVKKPGSSVKVSCKASGGTYSNYWIHWVRQAPGQGLEWMGATYRIQSTTYYNQKFKSRVTITADKSTSTAYMELSSLRSEDTAVYYCARGAIYHGYDVIENWGQGTLVTVSS
VL: DIQMTQSPSSLSASVGDRVTITCRASQSISSYINWYQQKPGKAPKLLIYATSNLQSGVPSRFSGSGSGTDFTLTISSLQPEDFATYYCQQYRRIPWTFGQGTKLEIKR
As for B11, the Kd is 126 nM in test [3] and 63.2 nM in test [4].

B12: AB200-(2Vk35)_R2-VH-v48 (Fab, V domains shown)
VH: QVQLVQSGAEVKKPGSSVKVSCKASGGTYSNYWIHWVRQAPGQGLEWMGGTYRIHSTTYYNQKFKSRVTITADKSTSTAYMELSSLRSEDTAVYYCARGAIYHGFDVIDNWGQGTLVTVSS
VL: DIQMTQSPSSLSASVGDRVTITCRASQSISSYINWYQQKPGKAPKLLIYATSNLQSGVPSRFSGSGSGTDFTLTISSLQPEDFATYYCQQYRRIPWTFGQGTKLEIKR
Take B12: the Kd stood at 52 nM in test [3] and 36.6 nM in test [4].

B13: AB200-(2Vk35)_R2-VH-v52 (Fab, V domains shown)
VH: QVQLVQSGAEVKKPGSSVKVSCKASGGSFSNYWIHWVRQAPGQGLEWMGATYRIQSDTYYAQKFKSRVTITADKSTSTAYMELSSLRSEDTAVYYCARGAIFHGYDVIDNWGQGTLVTVSS
VL: DIQMTQSPSSLSASVGDRVTITCRASQSISSYINWYQQKPGKAPKLLIYATSNLQSGVPSRFSGSGSGTDFTLTISSLQPEDFATYYCQQYRRIPWTFGQGTKLEIKR
Regarding B13, the Kd in test [3] was 25.7 nM; in test [4] it was 6.24 nM.

B14: AB200-(2Vk35)_R2-VH-v56 (Fab, V domains shown)
VH: QVQLVQSGAEVKKPGSSVKVSCKASGGSFSNYWIHWVRQAPGQGLEWMGATYRIHSDTYYAQKYKSRVTITADKSTSTAYMELSSLRSEDTAVYYCARGAIFHGYDVIDNWGQGTLVTVSS
VL: DIQMTQSPSSLSASVGDRVTITCRASQSISSYINWYQQKPGKAPKLLIYATSNLQSGVPSRFSGSGSGTDFTLTISSLQPEDFATYYCQQYRRIPWTFGQGTKLEIKR
B14: the Kd in test [3] came out at 44.7 nM; in test [4], 11.3 nM.

B15: AB200-(2Vk35)_R2-VH-v46 (Fab, V domains shown)
VH: QVQLVQSGAEVKKPGSSVKVSCKASGGTYSNYWIHWVRQAPGQGLEWMGATYRIQSDTNYNQKFKSRVTITADKSTSTAYMELSSLRSEDTAVYYCARGAIYHGYDVIENWGQGTLVTVSS
VL: DIQMTQSPSSLSASVGDRVTITCRASQSISSYINWYQQKPGKAPKLLIYATSNLQSGVPSRFSGSGSGTDFTLTISSLQPEDFATYYCQQYRRIPWTFGQGTKLEIKR
Take B15: the Kd in test [3] turned out to be 287 nM; in test [4] it was 103 nM.

B16: AB200-(2Vk35)_R2-VH-v36 (Fab, V domains shown)
VH: QVQLVQSGAEVKKPGSSVKVSCKASGGTFSNYWIHWVRQAPGQGLEWMGATYRSHSDTYYAEKFKSRVTITADKSTSTAYMELSSLRSEDTAVYYCARGAIFHGYDVIDNWGQGTLVTVSS
VL: DIQMTQSPSSLSASVGDRVTITCRASQSISSYINWYQQKPGKAPKLLIYATSNLQSGVPSRFSGSGSGTDFTLTISSLQPEDFATYYCQQYRRIPWTFGQGTKLEIKR
For B16, the Kd in test [3] is 14.8 nM; in test [4] it was 3.15 nM.

B17: AB200-(2Vk35)_R2-VH-v32 (Fab, V domains shown)
VH: QVQLVQSGAEVKKPGSSVKVSCKASGGTFSNYWIHWVRQAPGQGLEWMGATYRSHSDTNYNQKYKSRVTITADKSTSTAYMELSSLRSEDTAVYYCARGAIFHGYDVIDNWGQGTLVTVSS
VL: DIQMTQSPSSLSASVGDRVTITCRASQSISSYINWYQQKPGKAPKLLIYATSNLQSGVPSRFSGSGSGTDFTLTISSLQPEDFATYYCQQYRRIPWTFGQGTKLEIKR
In the case of B17, the Kd in test [3] worked out at 67.3 nM; in test [4], 29.1 nM.

B18: AB200-(2Vk35)_R2-VH-v9 (Fab, V domains shown)
VH: QVQLVQSGAEVKKPGSSVKVSCKASGGTYSNYWIHWVRQAPGQGLEWMGATYRSQSDTNYNQKFKSRVTITADKSTSTAYMELSSLRSEDTAVYYCARGAIYHGFDVIDNWGQGTLVTVSS
VL: DIQMTQSPSSLSASVGDRVTITCRASQSISSYINWYQQKPGKAPKLLIYATSNLQSGVPSRFSGSGSGTDFTLTISSLQPEDFATYYCQQYRRIPWTFGQGTKLEIKR
As to B18, the Kd was determined as 103 nM in test [3] and 49.3 nM in test [4].

B19: AB200-(2Vk35)_R2-VH-v55 (Fab, V domains shown)
VH: QVQLVQSGAEVKKPGSSVKVSCKASGGSFSNYWIHWVRQAPGQGLEWMGATYRIHSTTYYNQKYKSRVTITADKSTSTAYMELSSLRSEDTAVYYCARGAVYHGYDVIDNWGQGTLVTVSS
VL: DIQMTQSPSSLSASVGDRVTITCRASQSISSYINWYQQKPGKAPKLLIYATSNLQSGVPSRFSGSGSGTDFTLTISSLQPEDFATYYCQQYRRIPWTFGQGTKLEIKR
In the case of B19, the figures for the Kd in test [3] and in test [4] were 43.1 nM and 19.7 nM, respectively.
